Like-named read-outs stand apart in the source and are kept apart here.

What is called stoichiometry N is the number of molecules, sites or subunits per partner or assembly.

Experiment [1] deals with p75 C257A/G266I mutant tagged with mEGFP (human) (UniProt P08138). In words: non-reducing SDS-PAGE of immunoprecipitated protein.
In experiment [2] the target is p75 G247C mutant tagged with mEGFP (human) (UniProt P08138). The experiment is described as above.
Experiment [3] concerns the target p75 G247C/Δ250 mutant tagged with mEGFP (human). The experiment is described as above.
Experiment [4] deals with p75 Δ193/C257A/G266I mutant tagged with mEGFP (human). In words: number and brightness.
Experiment [5] concerns the target wild-type neurotrophin receptor p75 tagged with mEGFP (p75-EGFP) (human) (UniProt P08138). In words: non-reducing SDS-PAGE of immunoprecipitated protein.
Experiment [6] shares this target. In words: photon-counting histogram.
Experiment [7] has the same target. In words: number and brightness.
For experiment [8] the target is unchanged. In words: non-reducing SDS-PAGE of immunoprecipitated protein. This is another data set of the same source.

For “p75 C257A/G266I mutant tagged with mEGFP (from UniProt P08138 29-427) (receptor)”, in experiment [1], the percent recovered as dimer was 0.8%.
Regarding “p75 G247C mutant tagged with mEGFP (from UniProt P08138 29-427) (receptor)”, the percent recovered as dimer in experiment [2] was 29%.
As for “p75 G247C/Δ250 mutant tagged with mEGFP (receptor)”, in experiment [3], the percent recovered as dimer came out at 56%.
Turning to “p75 Δ193/C257A/G266I mutant tagged with mEGFP (receptor)”, the stoichiometry N (molecules per oligomer) in experiment [4] came out at 2.9.
On to “wild-type neurotrophin receptor p75 tagged with mEGFP (p75-EGFP) (from UniProt P08138 29-427)”, for which the percent recovered as dimer in experiment [5] worked out at 5.8%. In experiment [6], the median brightness normalised to EGFP came out at 1.71 x EGFP, the stoichiometry N was 3 and the stoichiometry N (EGFP molecules per complex) was 1 to 5. In experiment [7], this substance displayed an average brightness normalised to EGFP, center of the TGN of 6.9 x EGFP; an average brightness normalised to EGFP, periphery of the TGN of 10.4 x EGFP; a stoichiometry N (molecules per oligomer) of 8.8. In experiment [8], the percent recovered as dimer was determined as 6.9%.

These data come from article PMC3681702.
